Reference: article PMC3464217 (2012)

Legend:
Assay in all cases: SPR
recombinant gp160 [1] = biological target: T1, recombinant gp160 (HIV (IIIB or MN/LAI))
recombinant gp160 [2] = biological target: T1, recombinant gp160; remark: listed apart in the source
recombinant gp160 [3] = biological target: T1, recombinant gp160; remark: listed apart in the source

B1: 7B2 (antibody, V domains shown)
VH: QVQLVQSGGGVFKPGGSLRLSCEASGFTFTEYYMTWVRQAPGKGLEWLAYISKNGEYSKYSPSSNGRFTISRDNAKNSVFLQLDRLSADDTAVYYCARADGLTYFSELLQYIFDLWGQGARVTVSS
VL: DIVMTQSPDSLAVSPGERATIHCKSSQTLLYSSNNRHSIAWYQQRPGQPPKLLLYWASMRLSGVPDRFSGSGSGTDFTLTINNLQAEDVAIYYCHQYSSHPPTFGHGTRVELR
Binder B1 has a Ka (recombinant gp160 [1]) of 3.4e+09 M⁻¹, a koff (recombinant gp160 [2]) of 4.9e-05 s⁻¹ and a Kd (recombinant gp160 [3]) of 0.31 nM.

B2: HY (antibody, V domains shown)
VH: QVQLEQSGAEVKKPGASVKVSCQASGYRFSHFTVHWVRQAPGQRFEWMGWINPYNGNKEFSAKFQDRVTFTADTSANTAYMELRSLRSADTAVYYCARVGEWGWDDSPYDNYYMDVWGKGTTVIVSS
VL: EIVLTQSPGTLSLSPGERATFSCRSSHSIRSRRVAWYQHKPGQAPRLVIHGVSNRASGISDRFSGSGSGTDFTLTITRVEPEDFALYYCQVYGASSYTFGQGTKLERK
B2 showed a Ka (recombinant gp160 [1]) of 2.7e+06 M⁻¹, a koff (recombinant gp160 [2]) of 0.018 s⁻¹ and a Kd (recombinant gp160 [3]) of 370 nM.
